Columns and labels:
Assay in all cases: purified protein
Settings in all cases: 0.25 mM NADPH, 50 mM sodium phosphate pH 7.0, 30 °C, reduction
purified protein [1] = substrate: CC(=O)C=O; format: biochemical, Zea mays
purified protein [2] = substrate: O=Cc1ccc([N+](=O)[O-])cc1; format: biochemical, Zea mays
purified protein [3] = substrate: O=CC(O)CO

B1: ZmAKR4C13 (Zea mays) (protein)
chain: MASAQAVGQGERGHFVLKSGHTIPAVGLGTWRAGSDTAHSVRTAIAEAGYRHVDTAAQYGVEKEVGRGLKAAMEGGINRKDLFVTSKLWCTELAPDRVRPALEKTLKDLQLDYLDLYLIHWPFRLKDGAHMPPEAGEVLEFDMEGVWREMEGLVKDGLVKDIGVCNYTVAKLNRLMRSANVPPAVCQMEMHPGWKNDRIFEACKKHGIHVTAYSPLGSSEKNLAHDPLVEKVANKLDKTPGQVLLRWALQRGTSVIPKSTRDERIKENIQVFGWEIPEEDFRALCGIKDEKRVLTGEELFVNKTHGPYKSATEVWDHED
notes: monomer
- Km (purified protein [1]): 940 ± 80 µM
- kcat (purified protein [1]): 2.21 s⁻¹
- kcat/Km (purified protein [1]): 2350 M⁻¹ s⁻¹
- Km (purified protein [2]): 100 ± 20 µM
- kcat (purified protein [2]): 0.65 s⁻¹
- kcat/Km (purified protein [2]): 6510 M⁻¹ s⁻¹
- Km (purified protein [3]): 1460 ± 290 µM
- kcat (purified protein [3]): 18 s⁻¹
- kcat/Km (purified protein [3]): 12400 M⁻¹ s⁻¹

— publication PMC12302338, “Functional genomics and structural insights into maize aldo-keto reductase-4 family: Stress metabolism and substrate specificity in embryos” (The Journal of Biological Chemistry, 2025)
